The results in this text go back to US20120093813A1.

Experiment [1] addresses huN1-NRRHD chimeric antigen, HD-C Subdomain swap 1 (to Notch2 sequence) (human; human with Notch2 residues) (UniProt P46531). As to the kind of experiment: ELISA on coated conditioned medium. (ELISA stands for enzyme-linked immunosorbent assay.)
The target of experiment [2] is huN1-NRRHD chimeric antigen, HD-C Subdomain swap 3 (to Notch2 sequence) (human; human with Notch2 residues) (UniProt P46531). As to the kind of experiment: ELISA on coated conditioned medium.
In experiment [3] the target is huN1-NRRHD chimeric antigen, HD-C Subdomain swap 4 (to Notch2 sequence) (human; human with Notch2 residues) (UniProt P46531). As to the kind of experiment: ELISA on coated conditioned medium.
Experiment [4] concerns the target huN1-NRRHD chimeric antigen, HD-C Subdomain swap 5 (to Notch2 sequence) (human; human with Notch2 residues) (UniProt P46531). As to the kind of experiment: ELISA on coated conditioned medium.
Experiment [5] addresses huN1-NRRHD chimeric antigen, HD-C Subdomain swap 2 (to Notch2 sequence) (human; human with Notch2 residues) (UniProt P46531). The experiment in a line: ELISA on coated conditioned medium.
The target of experiment [6] is Notch1 chimeric antigen, Lin-A domain swapped with murine sequence (human; human with mouse Lin-A) (UniProt P46531). The experiment in a line: ELISA on coated conditioned medium.
The target of experiment [7] is huN1-NRRHD Mutant 1465S/N (human) (UniProt P46531). As to the kind of experiment: ELISA, relative to huN1-NRRHD.
In experiment [8] the target is huN1-NRRHD Mutant 1457E/A (human) (UniProt P46531). As to the kind of experiment: ELISA, relative to huN1-NRRHD.
The target of experiment [9] is huN1-NRRHD Mutant 1466L/A (human) (UniProt P46531). The experiment in a line: ELISA, relative to huN1-NRRHD.
In experiment [10] the target is huN1-NRRHD Mutant 1462K/A (human) (UniProt P46531). As to the kind of experiment: ELISA, relative to huN1-NRRHD.
Experiment [11] deals with huN1-NRRHD Mutant 1467Q/A (human) (UniProt P46531). As to the kind of experiment: ELISA, relative to huN1-NRRHD.
Experiment [12] has as its target Notch1 chimeric antigen, Lin-A domain swapped with murine sequence (human; human with mouse Lin-A) (UniProt P46531). As to the kind of experiment: ELISA, relative to huN1-NRRHD.
The target in experiment [13] is huN1-NRRHD Mutant 1463V/A (human) (UniProt P46531). As to the kind of experiment: ELISA, relative to huN1-NRRHD.

B1: mouse monoclonal antibody N248A (antibody, IgG1, V domains shown)
VH: QVQLQQSGAELMKPGASVKISCKATGYTFSNYWMEWVKQRPGHGLEWIGEILPGRGRTNYNENFKGKATFTADTSSNTVYMQLNSLTSEDSAVYYCARFHSSAYYYTMDYWGQRTSVTVSS
VL: QAVVTQESALTTSPGETVTLTCRSSTGAVTTSNYANWVQEKPDHLFTGLIGGTNNRAPGIPARFSGSLIGDKAALTITGAQTEDEAIYFCALWYSNHWVFGGGTKLTVL
On to B1, for which the ELISA reading (Binding activity) in [1] was determined as 0.48; in experiment [2], 2.81; in experiment [3], 2.89; in [4], 1.48; in [5], 2.76. The molecule also displayed an ELISA reading in experiment [6] of 0.33. Further, the Binding activity in experiment [7] turned out to be 8%; in [8] it was 112%; in experiment [9], 1%; in [10], 85%; in experiment [11], 4%; in [12] it was 11%. Moreover, the Binding activity in experiment [13] was found to be 6%.
